# According to patent US20200002431A1 (Seagen, published 2020):
# T1: human BCMA (B-cell maturation antigen, CD269) expressed on cells (human, UniProt Q02223 1-184)
# T1 construct: Endogenous on myeloma lines (NCI-H929, U266, JJN3) or a full-length clone transfected into HEK 293 cells; also called hBCMA; BCMA expressed on NCI-H929 cells
# T1 sequence: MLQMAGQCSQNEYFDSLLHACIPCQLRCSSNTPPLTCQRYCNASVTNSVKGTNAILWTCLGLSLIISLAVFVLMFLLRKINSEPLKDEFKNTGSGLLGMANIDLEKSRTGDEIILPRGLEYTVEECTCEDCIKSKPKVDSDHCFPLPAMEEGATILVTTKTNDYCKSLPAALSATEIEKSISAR
# Biological target: T1, human BCMA (B-cell maturation antigen, …)
# Test: cell binding, NCI-H929 cells expressing BCMA, 3-pt assay
# Procedure: The six humanized heavy chains and four humanized light chains were tested in all 24 possible permutations for binding to BCMA expressed on NCI-H929 cells, which express about 50,000 molecules of BCMA per cell.
row,Binder,binding result
1,"hSG16.45 vH1 vK1 (antibody, V domains shown, also called hSG16.45 1) VH: EVQLLESGGGLVQPGGSLRLSCAASGFTFNDHWMTWIRQAPGKGLEWISSITNTGGATYYLDSVKGRFTISRDNSKNTLYLQMNSLRAEDTAVYYCTSPGLYFDYWGQGVMVTVSS VL: EIVLTQSPGTLSASPGERVTISCRASSSVSVMYWYQHKPGQAPRLLIYSTSSLASGVPDRFSGSGSGTDYTLTISRMEPEDFAVYYCHQWSSDPPTFGQGTKLEIKR",binds
2,"rat SG16.45 antibody (antibody, V domains shown, Rat monoclonal antibody; also called rSG16.45; hybridoma well 45) VH: EVQLVESGGGLVQPGRSLKLSCVASGFTFNDHWMTWIRQAPGRGLEWISSITNTGGATYYLDSVKGRFTISRDNAKSTLYLQMNSLRSEDTATYYCTSPGLYFDYWGQGVMVTVSS VL: EIVLTQSPTTTAASPGEKVTITCLATSSVSVMYWYQHKSGASPKLLIYSTSSLASGVPDRFSGSGSGTSYSLTINTMEAEDAATYYCHQWSSDPPTFGSGTKLEIKR",binds
3,"hSG16.45 vH6 vK5 (antibody, V domains shown, also called hSG16.45 24) VH: EVQLVESGGGLVQPGRSLRLSCAASGFTFNDHWMTWVRQAPGKGLEWVSGITNTGGATYYADSVKGRFTISRDNAKNSLYLQMNSLRAEDTALYYCTSPGLYFDYWGQGTMVTVSS VL: EIVLTQSPGTLSLSPGERATLSCLATSSVSVMYWYQHKPGQAPRLLIYSTSSLASGIPDRFSGSGSGTDYTLTISRLEPEDFAVYYCHQWSSDPPTFGQGTKLEIKR",binds
4,"cSG16.45 (antibody, V domains shown, also called chimeric SG16.45) VH: EVQLVESGGGLVQPGRSLKLSCVASGFTFNDHWMTWIRQAPGRGLEWISSITNTGGATYYLDSVKGRFTISRDNAKSTLYLQMNSLRSEDTATYYCTSPGLYFDYWGQGVMVTVSS VL: EIVLTQSPTTTAASPGEKVTITCLATSSVSVMYWYQHKSGASPKLLIYSTSSLASGVPDRFSGSGSGTSYSLTINTMEAEDAATYYCHQWSSDPPTFGSGTKLEIKR",binds
5,"hSG16.45 vH6 vK2 (antibody, V domains shown, also called hSG16.45 22) VH: EVQLVESGGGLVQPGRSLRLSCAASGFTFNDHWMTWVRQAPGKGLEWVSGITNTGGATYYADSVKGRFTISRDNAKNSLYLQMNSLRAEDTALYYCTSPGLYFDYWGQGTMVTVSS VL: EIVLTQSPGTLSLSPGERATLSCRASSSVSVMYWYQQKPGQAPRLLIYSTSSLASGIPDRFSGSGSGTDFTLTISRLEPEDFAVYYCHQWSSDPPTFGQGTKLEIKR",binds
6,"hSG16.45 vH5 vK2 (antibody, V domains shown, also called hSG16.45 18) VH: EVQLVESGGGLVQPGGSLRLSCAASGFTFNDHWMTWVRQAPGKGLVWVSSITNTGGATYYADSVKGRFTISRDNAKNTLYLQMNSLRAEDTAVYYCTSPGLYFDYWGQGTMVTVSS VL: EIVLTQSPGTLSLSPGERATLSCRASSSVSVMYWYQQKPGQAPRLLIYSTSSLASGIPDRFSGSGSGTDFTLTISRLEPEDFAVYYCHQWSSDPPTFGQGTKLEIKR",binds
7,"hSG16.45 vH4 vK1 (antibody, V domains shown, also called hSG16.45 13) VH: EVQLLESGGGLVQPGGSLRLSCAASGFTFNDHWMTWVRQAPGKGLEWISSITNTGGATYYADSVKGRFTISRDNSKSTLYLQMNSLRAEDTAVYYCTSPGLYFDYWGQGTMVTVSS VL: EIVLTQSPGTLSASPGERVTISCRASSSVSVMYWYQHKPGQAPRLLIYSTSSLASGVPDRFSGSGSGTDYTLTISRMEPEDFAVYYCHQWSSDPPTFGQGTKLEIKR",binds
8,"hSG16.45 vH4 vK5 (antibody, V domains shown, also called hSG16.45 16) VH: EVQLLESGGGLVQPGGSLRLSCAASGFTFNDHWMTWVRQAPGKGLEWISSITNTGGATYYADSVKGRFTISRDNSKSTLYLQMNSLRAEDTAVYYCTSPGLYFDYWGQGTMVTVSS VL: EIVLTQSPGTLSLSPGERATLSCLATSSVSVMYWYQHKPGQAPRLLIYSTSSLASGIPDRFSGSGSGTDYTLTISRLEPEDFAVYYCHQWSSDPPTFGQGTKLEIKR",binds
9,"hSG16.45 vH6 vK3 (antibody, V domains shown, also called hSG16.45 23) VH: EVQLVESGGGLVQPGRSLRLSCAASGFTFNDHWMTWVRQAPGKGLEWVSGITNTGGATYYADSVKGRFTISRDNAKNSLYLQMNSLRAEDTALYYCTSPGLYFDYWGQGTMVTVSS VL: EIVLTQSPGTLSLSPGERATISCRASSSVSVMYWYQHKPGQAPRLLIYSTSSLASGVPDRFSGSGSGTDYTLTISRLEPEDFAVYYCHQWSSDPPTFGQGTKLEIKR",binds
10,"hSG16.45 vH5 vK3 (antibody, V domains shown, also called hSG16.45 19) VH: EVQLVESGGGLVQPGGSLRLSCAASGFTFNDHWMTWVRQAPGKGLVWVSSITNTGGATYYADSVKGRFTISRDNAKNTLYLQMNSLRAEDTAVYYCTSPGLYFDYWGQGTMVTVSS VL: EIVLTQSPGTLSLSPGERATISCRASSSVSVMYWYQHKPGQAPRLLIYSTSSLASGVPDRFSGSGSGTDYTLTISRLEPEDFAVYYCHQWSSDPPTFGQGTKLEIKR",binds
11,"hSG16.45 vH3 vK5 (antibody, V domains shown, also called hSG16.45 12) VH: EVQLLESGGGLVQPGGSLRLSCAASGFTFNDHWMTWIRQAPGKGLEWISAITNTGGATYYADSVKGRFTISRDNSKSTLYLQMNSLRAEDTAVYYCTSPGLYFDYWGQGVMVTVSS VL: EIVLTQSPGTLSLSPGERATLSCLATSSVSVMYWYQHKPGQAPRLLIYSTSSLASGIPDRFSGSGSGTDYTLTISRLEPEDFAVYYCHQWSSDPPTFGQGTKLEIKR",binds
12,"hSG16.45 vH6 vK1 (antibody, V domains shown, also called hSG16.45 21) VH: EVQLVESGGGLVQPGRSLRLSCAASGFTFNDHWMTWVRQAPGKGLEWVSGITNTGGATYYADSVKGRFTISRDNAKNSLYLQMNSLRAEDTALYYCTSPGLYFDYWGQGTMVTVSS VL: EIVLTQSPGTLSASPGERVTISCRASSSVSVMYWYQHKPGQAPRLLIYSTSSLASGVPDRFSGSGSGTDYTLTISRMEPEDFAVYYCHQWSSDPPTFGQGTKLEIKR",binds
13,"hSG16.45 vH4 vK2 (antibody, V domains shown, also called hSG16.45 14) VH: EVQLLESGGGLVQPGGSLRLSCAASGFTFNDHWMTWVRQAPGKGLEWISSITNTGGATYYADSVKGRFTISRDNSKSTLYLQMNSLRAEDTAVYYCTSPGLYFDYWGQGTMVTVSS VL: EIVLTQSPGTLSLSPGERATLSCRASSSVSVMYWYQQKPGQAPRLLIYSTSSLASGIPDRFSGSGSGTDFTLTISRLEPEDFAVYYCHQWSSDPPTFGQGTKLEIKR",binds
14,"hSG16.45 vH1 vK2 (antibody, V domains shown, also called hSG16.45 2) VH: EVQLLESGGGLVQPGGSLRLSCAASGFTFNDHWMTWIRQAPGKGLEWISSITNTGGATYYLDSVKGRFTISRDNSKNTLYLQMNSLRAEDTAVYYCTSPGLYFDYWGQGVMVTVSS VL: EIVLTQSPGTLSLSPGERATLSCRASSSVSVMYWYQQKPGQAPRLLIYSTSSLASGIPDRFSGSGSGTDFTLTISRLEPEDFAVYYCHQWSSDPPTFGQGTKLEIKR",binds
15,"hSG16.45 vH1 vK5 (antibody, V domains shown, also called hSG16.45 4) VH: EVQLLESGGGLVQPGGSLRLSCAASGFTFNDHWMTWIRQAPGKGLEWISSITNTGGATYYLDSVKGRFTISRDNSKNTLYLQMNSLRAEDTAVYYCTSPGLYFDYWGQGVMVTVSS VL: EIVLTQSPGTLSLSPGERATLSCLATSSVSVMYWYQHKPGQAPRLLIYSTSSLASGIPDRFSGSGSGTDYTLTISRLEPEDFAVYYCHQWSSDPPTFGQGTKLEIKR",binds
16,"hSG16.45 vH5 vK1 (antibody, V domains shown, also called hSG16.45 17) VH: EVQLVESGGGLVQPGGSLRLSCAASGFTFNDHWMTWVRQAPGKGLVWVSSITNTGGATYYADSVKGRFTISRDNAKNTLYLQMNSLRAEDTAVYYCTSPGLYFDYWGQGTMVTVSS VL: EIVLTQSPGTLSASPGERVTISCRASSSVSVMYWYQHKPGQAPRLLIYSTSSLASGVPDRFSGSGSGTDYTLTISRMEPEDFAVYYCHQWSSDPPTFGQGTKLEIKR",binds
17,"hSG16.45 vH4 vK3 (antibody, V domains shown, also called hSG16.45 15) VH: EVQLLESGGGLVQPGGSLRLSCAASGFTFNDHWMTWVRQAPGKGLEWISSITNTGGATYYADSVKGRFTISRDNSKSTLYLQMNSLRAEDTAVYYCTSPGLYFDYWGQGTMVTVSS VL: EIVLTQSPGTLSLSPGERATISCRASSSVSVMYWYQHKPGQAPRLLIYSTSSLASGVPDRFSGSGSGTDYTLTISRLEPEDFAVYYCHQWSSDPPTFGQGTKLEIKR",binds
18,"hSG16.45 vH1 vK3 (antibody, V domains shown, also called hSG16.45 3) VH: EVQLLESGGGLVQPGGSLRLSCAASGFTFNDHWMTWIRQAPGKGLEWISSITNTGGATYYLDSVKGRFTISRDNSKNTLYLQMNSLRAEDTAVYYCTSPGLYFDYWGQGVMVTVSS VL: EIVLTQSPGTLSLSPGERATISCRASSSVSVMYWYQHKPGQAPRLLIYSTSSLASGVPDRFSGSGSGTDYTLTISRLEPEDFAVYYCHQWSSDPPTFGQGTKLEIKR",binds
19,"hSG16.45 vH5 vK5 (antibody, V domains shown, also called hSG16.45 20) VH: EVQLVESGGGLVQPGGSLRLSCAASGFTFNDHWMTWVRQAPGKGLVWVSSITNTGGATYYADSVKGRFTISRDNAKNTLYLQMNSLRAEDTAVYYCTSPGLYFDYWGQGTMVTVSS VL: EIVLTQSPGTLSLSPGERATLSCLATSSVSVMYWYQHKPGQAPRLLIYSTSSLASGIPDRFSGSGSGTDYTLTISRLEPEDFAVYYCHQWSSDPPTFGQGTKLEIKR",binds
20,"hSG16.17 vH3 vK2 (antibody, V domains shown, also called hSG16.17 9; VH3 VK2 humanized antibody) VH: QVQLVQSGAEVKKPGASVKLSCKASGYTFTDYYIHWVRQAPGQGLEWIGYINPNSGYTNYAQKFQGRATMTADKSINTAYVELSRLRSDDTAVYFCTRYMWERVTGFFDFWGQGTMVTVSS VL: DIQMTQSPSSVSASVGDRVTITCLASEDISDDLAWYQQKPGKAPKVLVYTTSSLQSGVPSRFSGSGSGTDFTLTISSLQPEDFATYFCQQTYKFPPTFGGGTKVEIKR",binds
21,"hSG16.17 vH1 vK2 (antibody, V domains shown, also called hSG16.17 1) VH: QVQLVQSRAEVKKPGASVKLSCKASGYTFTDYYIHWVRQAPGQGLEWIGYINPNSGYTKYNENFKTRATMTADKSINTAYVELSRLRSDDTAVYFCTRYMWERVTGFFDFWGQGTMVTVSS VL: DIQMTQSPSSVSASVGDRVTITCLASEDISDDLAWYQQKPGKAPKVLVYTTSSLQSGVPSRFSGSGSGTDFTLTISSLQPEDFATYFCQQTYKFPPTFGGGTKVEIKR",binds
